From US20230102344A1
Positions count from the first letter of the chain named.

B1: BJM0897 (antibody, V domains shown)
VH: QVQLVQSGAEVKKPGSSVKVSCKASGTDFKLTYIHWVRQAPGQGLEWMGRIFPGSGNVKYNEKFKGRVTITADTSTSTAYMELSSLRSEDTAVYYCAGSYYSYDVLDYWGQGTTVTVSS
VL: DIQMTQSPSFLSASVGDRVTITCKASQNVDNRVAWYQQKPGKAPKALIYSSSHRYKGVPSRFSGSGSGTEFTLTISSLQPEDFATYFCQQFKSYPLTFGQGTKLEIK
B2: BJM0912 (antibody, V domains shown)
VH: B1 VH with T27H, K30H, T32W, I51V, F52S, P53A
VL: B1 VL with R32K, Y36H
B3: BJM0899 (antibody, V domains shown)
VH: B1 VH with T27H, K30R, F52S, P53A
VL: B1 VL with D30A, N31D
B4: BJM0502 (scFv, part only; not given: Fc scaffold making it bivalent, part only)
scFv, part: QVQLVQSGAEVKKPGSSVKVSCKASGHDFHLWYIHWVRQAPGQGLEWMGRVSAGSGNVKYNEKFKGRVTITADTSTSTAYMELSSLRSEDTAVYYCAGSYYSYDVLDYWGQGTTVTVSSGGGGSGGGGSGGGGSGGGGSDIQMTQSPSFLSASVGDRVTITCKASQNVDNKVAWHQQKPGKAPKALIYSSSHRYKGVPSRFSGSGSGTEFTLTISSLQPEDFATYFCQQFKSYPLTFGQGTKLEIK
B5: A-H.64 (scFv)
scFv: B4 scFv, part with H30K, W32T, V58T, G98V, D169A, N170D, K171R, A173V
B6: A-H.66 (scFv)
scFv: B4 scFv, part with H30K, W32T, V51I, S52Y, V58T, G98V, D169G, N170D, K171R, A173V
B7: A-H.59 (scFv)
scFv: B4 scFv, part with H30R, W32T, V51I, S52Y, G98V, D169A, N170D, K171R, A173V
B8: BJM0498 (scFv, part only; not given: Fc scaffold making it bivalent, part only)
scFv, part: B4 scFv, part with H27T, H30K, W32T, V51I, S52F, A53P, K171R, H175Y
B9: A-H.63 (scFv)
scFv: B4 scFv, part with H30R, W32T, S52Y, V58T, G98V, D169E, N170D, K171R, A173V
B10: A-H.62 (scFv)
scFv: B4 scFv, part with H30R, W32T, G98V, D169A, N170D, K171R, A173V
B11: A-H.60 (scFv)
scFv: B4 scFv, part with H30K, W32T, V58T, G98V, D169G, N170D, K171R
B12: A-H.58 (scFv)
scFv: B4 scFv, part with H30R, W32T, G98V, D169G, K171R, A173V
B13: BJM0501 (scFv, part only; not given: Fc scaffold making it bivalent, part only)
scFv, part: B4 scFv, part with H30R, W32T, V51I, D169A, N170D, K171R, H175Y
B14: A-H.65 (scFv)
scFv: B4 scFv, part with H30K, W32T, V51I, V58T, G98V, D169G, N170D, K171R, A173V
B15: A-H.57 (scFv)
scFv: B4 scFv, part with H30R, W32T, V58T, G98V, D169G, N170D, K171R, A173V
B16: A-H.61 (scFv)
scFv: B4 scFv, part with H30K, W32T, V58T, G98V, K171R
B17: A-H.68 (scFv, not shown: a dimerising Fc or GST)
scFv: B4 scFv, part with H30R, W32T, V51I, G98V, D169A, N170D, K171R, H175Y
B18: A-H.13 (scFv)
scFv: B4 scFv, part with H27T, H30K, W32T, V51I, S52F, A53P, K171R, H175Y
B19: A-H.23 (scFv, not shown: a dimerising Fc or GST)
scFv: B4 scFv, part with H30R, W32T, V51I, D169A, N170D, K171R, H175Y
B20: A-H.24 (scFv)
scFv: B4 scFv, part
B21: A-H.67 (scFv)
scFv: B4 scFv, part with H27T, H30K, W32T, V51I, S52F, A53P, G98V, K171R, H175Y
B22: BJM0901 (bispecific antibody, not shown: a dimerising Fc or GST; large carriers)
heavy: QVQLVQSGAEVKKPGSSVKVSCKASGTDFKLTYIHWVRQAPGQGLEWMGRIFPGSGNVKYNEKFKGRVTITADTSTSTAYMELSSLRSEDTAVYYCAGSYYSYDVLDYWGQGTTVTVSSGGGGSGGGGSGGGGSGGGGSDIQMTQSPSFLSASVGDRVTITCKASQNVDNRVAWYQQKPGKAPKALIYSSSHRYKGVPSRFSGSGSGTEFTLTISSLQPEDFATYFCQQFKSYPLTFGQGTKLEIKGGGGSQVQLVQSGAEVKKPGSSVKVSCKASGYTFTDYNMHWVRQAPGQGLEWIGYIYPYNGGTGYNQKFKSKATITADESTNTAYMELSSLRSEDTAVYYCARGRPAMDYWGQGTLVTVSS
light: DIQMTQSPSSLSASVGDRVTITCRASESVDNYGISFMNWFQQKPGKAPKLLIYAASNQGSGVPSRFSGSGSGTDFTLTISSLQPDDFATYYCQQSKEVPWTFGQGTKVEIK

What follows are binders tested against cynomolgus TCRvβ (BJM0847) (cynomolgus) (assay: SPR (Biacore): antibody captured on Protein L chip, BJM0847 as analyte, 1:1 fit).

Row | Kd [nM] | Binder
1 | 69 | B1
2 | 326 | B2
3 | 130 | B3
4 | 387 | B4
5 | 1 | B5
6 | 2.2 | B6
7 | 5 | B7
8 | 86 | B8
9 | 5.8 | B9
10 | 0.766 | B10
11 | 1.6 | B11
12 | 0.158 | B12
13 | 87 | B13
14 | 0.725 | B14
15 | 0.762 | B15
16 | 0.607 | B16

The binders below were run against cynomolgus TCRvβ (BJM0847) (cynomolgus) (assay: SPR (Biacore): antibody amine-coupled to CM5, BJM0847 as analyte, 1:1 fit).

Row | Kd [nM] | Binder
17 | 59 | B17
18 | 173 | B18

These binders were tested against human TCRvβ (BIM0444) (human) (assay: SPR (Biacore): antibody captured via anti-human Fc on CM5, BIM0444 as analyte, 1:1 fit).
human TCRvβ (BIM0444) (human), sequence (A0A0K0K1A5 22-114): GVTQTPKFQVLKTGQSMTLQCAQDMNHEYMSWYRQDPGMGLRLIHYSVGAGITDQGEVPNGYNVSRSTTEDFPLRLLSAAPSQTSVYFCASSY

Row | Kd [nM] | Binder
19 | 7.2 | B1
20 | 28 | B2
21 | 3.7 | B3
22 | 20 | B4
23 | 0.486 | B5
24 | 0.338 | B6
25 | 1.7 | B19
26 | 0.323 | B7
27 | 7.9 | B8
28 | 12 | B20
29 | 0.274 | B9
30 | 0.447 | B10
31 | 0.445 | B11
32 | 0.829 | B17
33 | 3.8 | B18
34 | 0.491 | B12
35 | 4.1 | B13
36 | 20 | B21
37 | 0.396 | B14
38 | 0.469 | B15
39 | 0.349 | B16

The binders below were run against cynomolgus TCRvβ (BJM0847) (cynomolgus) (assay: SPR (Biacore), Table 21; set-up not restated).

Row | Kd [nM] | Binder
40 | 86 | B8
41 | 55 | B22

What follows are binders tested against human TCRvβ (BIM0444) (human) (assay: SPR (Biacore), Table 21; set-up not restated).

Row | Kd [nM] | Binder
42 | 7.9 | B8
43 | 7.09 | B22

These binders were tested against cynomolgus TCRvβ (BJM0847) (cynomolgus) (assay: SPR (Biacore), comparison with the parental antibody).

Row | fold improvement of affinity compared to the parental antibody [fold] | Binder
44 | 6 | B8
45 | 6 | B13
